Earlier results on 1 substance are cited in PMC8305778.

A word on the Kd: it is the free concentration of one partner at which half of the binding sites on the other are occupied at equilibrium, for simple one-to-one binding.

In the data set the target is FcεRIα (Homo sapiens) (UniProt P12319). Briefly: given as Ka.
Sequence of UniProt P12319 (P12319 26-257): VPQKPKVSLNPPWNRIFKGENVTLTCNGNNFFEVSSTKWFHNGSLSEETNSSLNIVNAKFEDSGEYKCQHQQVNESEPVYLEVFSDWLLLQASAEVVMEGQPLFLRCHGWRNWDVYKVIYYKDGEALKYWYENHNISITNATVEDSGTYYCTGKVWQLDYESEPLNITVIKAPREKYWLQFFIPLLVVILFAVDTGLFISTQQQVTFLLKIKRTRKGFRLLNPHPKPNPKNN

For the substance IgE Fc (from UniProt P01854), the Kd was 100 pM.
